Reference: article PMC2788424, “The 3′-Phosphoadenosine 5′-Phosphosulfate Transporters, PAPST1 and 2, Contribute to the Maintenance and Differentiation of Mouse Embryonic Stem Cells” (PLoS ONE, 2009)

Substrate: Nc1ncnc2c1ncn2[C@@H]1O[C@H](COP(=O)(O)OS(=O)(=O)O)[C@@H](OP(=O)(O)O)[C@H]1O
Experiment: cells, lysate or membranes
Format: biochemical, Mus musculus
Details: labelled compound, 20 mM Tris-HCl pH 7.5, 0.25 M sucrose, 5 mM MgCl2, 1 mM MnCl2, 10 mM 2-mercaptoethanol, 32°C, 5 min

Protein | Km
PAPST2 (Mus musculus) (protein) MDLKFNNSRKYVSISVPSKTQAMSPHIKSVEDVVVLGVNLSKFSKLTQFLICVAGVFVFYLIYGYLQELIFSVEGFKPYGWYLTLVQFAFYSVFGLIELQLTQDRRRRIPGKTYMLIAFLTVGTMGLSNTSLGYLNYPTQVIFKCCKLIPVMLGGVFIQGKRYNLADVSAAVCMSLGLIWFTLADSTIAPNFNLTGVMLISLALCADAVIGNVQEKAMKLHNASNSEMVLYSYSIGFVYILLGLSCTSGLGPAVAFCSKNPVGTYGYAFLFSLTGYFGISFVLALIKIFGALLAVTVTTGRKAMTVVLSFLFFAKPFTFQYIWSGLLVVLGIFLNVYSKNMDKIRLPSVYNMIKKAMDMKKSRTLAQTV | 1.49 µM
PAPST1 (Mus musculus) (protein) MDARWWAVVVLATLPSLGAGGESPEAPPQSWTQLWLFRFLLNVAGYASFMVPGYLLVQYLRRKNYLETGRGLCFPLVKACVFGNEPKAPDEVLLAPRTETAESTPSWQVLKLVFCASGLQVSYLTWGILQERVMTGSYGATATSPGEHFTDSQFLVLMNRVLALVVAGLYCVLRKQPRHGAPMYRYSFASLSNVLSSWCQYEALKFVSFPTQVLAKASKVIPVMMMGKLVSRRSYEHWEYLTAGLISIGVSMFLLSSGPEPRSSPATTLSGLVLLAGYIAFDSFTSNWQDALFAYKMSSVQMMFGVNLFSCLFTVGSLLEQGALLEGARFMGRHSEFALHALLLSICSAFGQLFIFYTIGQFGAAVFTIIMTLRQAIAILLSCLLYGHTVTVVGGLGVAVVFTALLLRVYARGRKQRGKKAVPTEPPVQKV | 1.54 µM
